test system: Escherichia coli TOP10; test: shrunken log2 fold change of peptide-encoding DNA abundance (4.5 h post-induction vs induction); higher = less antimicrobial activity (less host growth inhibition); details: time post-induction: 4.5 h; library: site-saturation at positions 5, 18, 19, 20
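Also: peptides expressed intracellularly from a pBAD plasmid library in pooled LB shake-flask culture, induced with 0.3% L-arabinose, DNA abundance read by NGS, three biological replicates, DESeq2 with apeglm shrinkage.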

| Sequence | shrunken log2 fold change |
| --- | --- |
| RRIRCRPPRLPRPRPRPEMDPRP | 0.0321 |
| RRIRLRPPRLPRPRPRPSIGPRP | -0.378 |
| RRIRHRPPRLPRPRPRPMQHPRP | 0.0685 |
| RRIRDRPPRLPRPRPRPWMKPRP | -0.0188 |
| RRIRGRPPRLPRPRPRPEHIPRP | 0.19 |
| RRIRMRPPRLPRPRPRPEINPRP | 2.85 |
| RRIRKRPPRLPRPRPRPDMFPRP | -0.258 |
| RRIRKRPPRLPRPRPRPYVKPRP | -0.312 |
| RRIRDRPPRLPRPRPRPHWCPRP | -0.116 |
| RRIRMRPPRLPRPRPRPYDDPRP | -0.00329 |
| RRIRCRPPRLPRPRPRPLMSPRP | -0.289 |
| RRIRQRPPRLPRPRPRPDPQPRP | -0.159 |
| RRIRWRPPRLPRPRPRPQQLPRP | -0.289 |
| RRIRMRPPRLPRPRPRPKIWPRP | 0.704 |
| RRIRDRPPRLPRPRPRPWYNPRP | -0.102 |
| RRIRMRPPRLPRPRPRPLLNPRP | 0.366 |
| RRIRRRPPRLPRPRPRPLQSPRP | 0.242 |
| RRIRSRPPRLPRPRPRPVNRPRP | -0.107 |
| RRIRQRPPRLPRPRPRPADNPRP | -0.536 |
| RRIRDRPPRLPRPRPRPVYMPRP | -0.506 |
| RRIRSRPPRLPRPRPRPCLLPRP | -0.284 |
| RRIRQRPPRLPRPRPRPLNNPRP | -0.586 |
| RRIRCRPPRLPRPRPRPPAEPRP | 1.18 |
| RRIRDRPPRLPRPRPRPHMCPRP | 0.0514 |
| RRIRTRPPRLPRPRPRPCETPRP | 0.0184 |

| Sequence | shrunken log2 fold change |
| --- | --- |
| RRIRKRPPRLPRPRPRPLLDPRP | 0.246 |
| RRIRSRPPRLPRPRPRPESYPRP | 1.29 |
| RRIRMRPPRLPRPRPRPIPEPRP | -0.0403 |
| RRIRWRPPRLPRPRPRPEIHPRP | -0.0167 |
| RRIRQRPPRLPRPRPRPYLLPRP | -0.0483 |
| RRIRHRPPRLPRPRPRPTRRPRP | 0.271 |
| RRIRSRPPRLPRPRPRPDDHPRP | -0.0124 |
| RRIRTRPPRLPRPRPRPWSFPRP | -0.0893 |
| RRIRQRPPRLPRPRPRPFAGPRP | 0.0242 |
| RRIRPRPPRLPRPRPRPDEGPRP | -0.188 |
| RRIRQRPPRLPRPRPRPIDIPRP | 0.107 |
| RRIRLRPPRLPRPRPRPGWFPRP | 0.147 |
| RRIRSRPPRLPRPRPRPQAGPRP | 0.165 |
| RRIRYRPPRLPRPRPRPPPPPRP | 1.2 |
| RRIRMRPPRLPRPRPRPRVIPRP | 0.477 |
| RRIRRRPPRLPRPRPRPEHRPRP | 0.343 |
| RRIRYRPPRLPRPRPRPKWVPRP | -0.0135 |
| RRIRIRPPRLPRPRPRPQTNPRP | -0.423 |
| RRIRIRPPRLPRPRPRPPQHPRP | -0.107 |
| RRIRVRPPRLPRPRPRPLNAPRP | -0.331 |
| RRIRDRPPRLPRPRPRPCGRPRP | 0.147 |
| RRIRRRPPRLPRPRPRPSTPPRP | 0.225 |
| RRIRKRPPRLPRPRPRPMLVPRP | -0.0603 |
| RRIRYRPPRLPRPRPRPYRPPRP | -0.0134 |
| RRIRTRPPRLPRPRPRPQWHPRP | -0.461 |

| Sequence | shrunken log2 fold change |
| --- | --- |
| RRIRFRPPRLPRPRPRPCHSPRP | -0.0231 |
| RRIRIRPPRLPRPRPRPFYCPRP | -0.633 |
| RRIRRRPPRLPRPRPRPFREPRP | 0.163 |
| RRIRLRPPRLPRPRPRPSHTPRP | -0.258 |
| RRIRIRPPRLPRPRPRPTSQPRP | -0.283 |
| RRIRDRPPRLPRPRPRPGHIPRP | -0.0814 |
| RRIRNRPPRLPRPRPRPHINPRP | -1.02 |
| RRIRFRPPRLPRPRPRPNHTPRP | -0.626 |
| RRIRCRPPRLPRPRPRPEACPRP | 0.0368 |
| RRIRPRPPRLPRPRPRPWARPRP | 0.0379 |
| RRIRDRPPRLPRPRPRPWHRPRP | -0.017 |
| RRIRPRPPRLPRPRPRPAALPRP | 0.248 |
| RRIRCRPPRLPRPRPRPVNLPRP | 2.47 |
| RRIRFRPPRLPRPRPRPAYKPRP | -0.314 |
| RRIRVRPPRLPRPRPRPNRCPRP | -0.364 |
| RRIRPRPPRLPRPRPRPLLWPRP | 0.0186 |
| RRIRLRPPRLPRPRPRPLFCPRP | -0.142 |
| RRIRNRPPRLPRPRPRPVTTPRP | 0.171 |
| RRIRLRPPRLPRPRPRPLWMPRP | -0.00586 |
| RRIRLRPPRLPRPRPRPQQKPRP | -0.167 |
| RRIRLRPPRLPRPRPRPRCFPRP | -0.0548 |
| RRIRMRPPRLPRPRPRPMQMPRP | 0.671 |
| RRIRRRPPRLPRPRPRPPGYPRP | 1.22 |
| RRIRCRPPRLPRPRPRPVVWPRP | 0.354 |
| RRIRWRPPRLPRPRPRPAGAPRP | 0.392 |

| Sequence | shrunken log2 fold change |
| --- | --- |
| RRIRLRPPRLPRPRPRPIDQPRP | 0.281 |
| RRIRLRPPRLPRPRPRPTQSPRP | 0.144 |
| RRIRIRPPRLPRPRPRPCWKPRP | 0.00408 |
| RRIRDRPPRLPRPRPRPLVIPRP | -0.0438 |
| RRIRARPPRLPRPRPRPMANPRP | 0.285 |
| RRIRSRPPRLPRPRPRPVLRPRP | 0.0904 |
| RRIRDRPPRLPRPRPRPSPDPRP | 0.312 |
| RRIRIRPPRLPRPRPRPADTPRP | -0.347 |
| RRIRYRPPRLPRPRPRPKAAPRP | 0.067 |
| RRIRVRPPRLPRPRPRPPGIPRP | 0.154 |
| RRIRMRPPRLPRPRPRPIAIPRP | 0.226 |
| RRIRTRPPRLPRPRPRPEYDPRP | -0.0227 |
| RRIRMRPPRLPRPRPRPAATPRP | 0.573 |
| RRIRVRPPRLPRPRPRPDRYPRP | -0.00296 |
| RRIRNRPPRLPRPRPRPEFGPRP | -0.106 |
| RRIRTRPPRLPRPRPRPLERPRP | -0.0732 |
| RRIRVRPPRLPRPRPRPKKVPRP | -0.11 |
| RRIRSRPPRLPRPRPRPDNNPRP | -0.268 |
| RRIRTRPPRLPRPRPRPAQTPRP | 0.712 |
| RRIRKRPPRLPRPRPRPGQHPRP | -0.000613 |
| RRIRERPPRLPRPRPRPFGWPRP | 0.213 |
| RRIRLRPPRLPRPRPRPDALPRP | -0.354 |
| RRIRSRPPRLPRPRPRPTGAPRP | 0.633 |
| RRIRVRPPRLPRPRPRPGPSPRP | 0.201 |
| RRIRHRPPRLPRPRPRPDYDPRP | -0.278 |

| Sequence | shrunken log2 fold change |
| --- | --- |
| RRIRVRPPRLPRPRPRPHLMPRP | -0.36 |
| RRIRDRPPRLPRPRPRPNTQPRP | 0.0704 |
| RRIRRRPPRLPRPRPRPRQLPRP | 0.394 |
| RRIRGRPPRLPRPRPRPENRPRP | 0.19 |
| RRIRWRPPRLPRPRPRPQKDPRP | -0.154 |
| RRIRYRPPRLPRPRPRPMPMPRP | -0.319 |
| RRIRNRPPRLPRPRPRPCFLPRP | -0.389 |
| RRIRRRPPRLPRPRPRPVAIPRP | 0.687 |
| RRIRLRPPRLPRPRPRPDHLPRP | -0.0674 |
| RRIRPRPPRLPRPRPRPKPIPRP | 0.035 |
| RRIRGRPPRLPRPRPRPYWVPRP | -0.178 |
| RRIRLRPPRLPRPRPRPFGYPRP | -0.291 |
| RRIRLRPPRLPRPRPRPEIYPRP | -0.0581 |
| RRIRQRPPRLPRPRPRPTHWPRP | 0.427 |
| RRIRPRPPRLPRPRPRPKCDPRP | -0.314 |
| RRIRWRPPRLPRPRPRPDVVPRP | 0.0719 |
| RRIRTRPPRLPRPRPRPPYLPRP | -0.365 |
| RRIRQRPPRLPRPRPRPVNRPRP | 0.00086 |
| RRIRKRPPRLPRPRPRPTPQPRP | 0.896 |
| RRIRSRPPRLPRPRPRPRPAPRP | 0.467 |
| RRIRLRPPRLPRPRPRPNEMPRP | 0.0287 |
| RRIRHRPPRLPRPRPRPYYFPRP | -0.178 |
| RRIRYRPPRLPRPRPRPAWQPRP | 0.0499 |
| RRIRERPPRLPRPRPRPNKQPRP | -0.174 |
| RRIRARPPRLPRPRPRPMTWPRP | 0.307 |

| Sequence | shrunken log2 fold change |
| --- | --- |
| RRIRKRPPRLPRPRPRPFQVPRP | 0.0377 |
| RRIRERPPRLPRPRPRPNGMPRP | -0.0154 |
| RRIRFRPPRLPRPRPRPRFAPRP | 0.366 |
| RRIRCRPPRLPRPRPRPEVNPRP | -0.00709 |
| RRIRPRPPRLPRPRPRPQFGPRP | -0.0476 |
| RRIRVRPPRLPRPRPRPTMPPRP | 0.24 |
| RRIRLRPPRLPRPRPRPVHVPRP | -0.0937 |
| RRIRPRPPRLPRPRPRPFTIPRP | -0.0323 |
| RRIRIRPPRLPRPRPRPHWYPRP | -1.16 |
| RRIRKRPPRLPRPRPRPYHLPRP | -0.0564 |
| RRIRRRPPRLPRPRPRPYMDPRP | -0.138 |
| RRIRYRPPRLPRPRPRPVAQPRP | 0.128 |
| RRIRCRPPRLPRPRPRPPHSPRP | 0.395 |
| RRIRNRPPRLPRPRPRPIPYPRP | -0.0122 |
| RRIRHRPPRLPRPRPRPSDEPRP | -0.000726 |
| RRIRCRPPRLPRPRPRPNQAPRP | -0.146 |
| RRIRERPPRLPRPRPRPAVMPRP | 0.0088 |
| RRIRTRPPRLPRPRPRPNCMPRP | -0.16 |
| RRIRGRPPRLPRPRPRPAQPPRP | 0.377 |
| RRIRNRPPRLPRPRPRPDHEPRP | -0.039 |
| RRIRNRPPRLPRPRPRPWTYPRP | -0.351 |
| RRIRYRPPRLPRPRPRPMMTPRP | -0.111 |
| RRIRERPPRLPRPRPRPKSQPRP | -0.0879 |
| RRIRFRPPRLPRPRPRPNCHPRP | -0.313 |
| RRIRRRPPRLPRPRPRPLYMPRP | -0.15 |
